In publication PMC9405973, “Altered Conformational Landscape upon Sensing Guanine Nucleotides in a Disease Mutant of Elongation Factor-like 1 (EFL1) GTPase” (Biomolecules, 2022):

What was measured:
[1] = substrate: Nc1nc2c(ncn2[C@@H]2O[C@H](COP(=O)(O)OP(=O)(O)OP(=O)(O)O)[C@@H](O)[C@H]2O)c(=O)[nH]1; assay: GTP hydrolysis by PNP-coupled Enzchek phosphate assay (MESG, 360 nm), pH 7.5, 5 mM MgCl2, 6 µM Efl1 alone, Michaelis-Menten fit.; format: biochemical; details: 25.0 °C
Description: Finally, we measured the enzyme kinetics of mutant Efl1 R1086Q as an isolated enzyme and bound to Sdo1 using an enzymatic coupled assay with a purine nucleoside phosphorylase (PNP) enzyme. This analysis was extended to another disease mutation (EFL1 M882K) also located in domain IV of the GTPase using the equivalent yeast variant, Efl1 L910K [17]. The Km and kcat kinetic parameters were calculated using non-linear regression assuming a Michaelis–Menten model (Supplementary Table S1). […] The catalytic constant for mutant R1086Q and the wild-type enzyme consisted of 0.67 min^−1, and it was 0.58 min^−1 for mutant Efl1 L910K. […] In line with the proposed role of Sdo1 as a guanine exchange factor of Efl1, previous results have shown that the interaction of wild-type Efl1 with Sdo1 impacted its Km for GTP, decreasing its value 2–3-fold. The Km values for the complexes formed between Sdo1 and Efl1 mutants decreased by half with respect to their cognate-free counterpart and differed from each other. […] The measured Km value comprises all the microscopic rate constants of the individual reactions occurring in the enzyme, which include the binding to the substrate and product and the corresponding conformational changes.
Hydrolysis of GTP was measured using the Enzchek Phosphate Assay kit (Molecular Probes) as described by Webb. […]
Reactions were initiated and the GTPase was added after 3 min. Time courses were followed by recording the change in absorbance at 360 nm in a Cary 60 UV -Vis spectrophotometer (Agilent Technologies). Background absorbance was recorded prior to the addition of the GTPase and subtracted from the sample signals. The slope of the measured time courses corresponded to the GTP hydrolysis rate. […] Data were analysed by nonlinear regression to the M ichaelis-Menten equation with the program Origin Version 5.0 (OriginLab, Co., Northampton, MA). […]
Maximum emission at 440 nm was replotted as a function of nucleotide concentration and analysed

[2] = system: Tif6 bound to 60S subunits; assay: Tif6 release assay with purified yeast components; format: biochemical, Saccharomyces cerevisiae; details: 50 nM Efl1 variant, 50 nM Sdo1, 100 µM GTP, 30 °C, 10 min
Description: The release of Tif6 (yeast orthologue of eIF6) was performed as previously described in [3, 15]. Reaction mixtures contained 10 nM 60S subunits, 40 nM Tif6, 50 nM Efl1 variant, 50 nM Sdo1, and 100 µM GTP in buffer of 10 mM Tris-HCl at pH 7.4, 75 mM KCl, and 1.5 mM MgCl2 supplemented with RNAse inhibitors (Promega, Madison, WI, USA) and protease inhibitors free of EDTA (GoldBio, St. Louis, MO, USA). GTP was omitted in the negative control, and 50 mM EDTA was added as the positive control to disassemble the 60S ribosomal subunits. Reaction mixtures of 100 µL were incubated at 30 °C for 10 min and added on top of 150 µL of a 30% sucrose cushion prepared in the same buffer. Samples were centrifuged at 476,000× g for 30 min in an Optima tabletop MX ultracentrifuge with a TLA-100 rotor. The top 200 µL (free fraction) was recovered, and the remaining 50 µL was resuspended in 150 µL of the same buffer. Samples were precipitated with 30% trichloroacetic acid, electrophoresed in 10% Tris-glycine SDS-PAGE, transferred to a PVDF membrane, and immunoblotted with antibodies anti-eIF6 (PA531066; Thermo Scientific; dilution 1:3000) and anti-uL3 (OAAB09713; Aviva Systems Biology, San Diego, CA, USA; dilution 1:500) overnight at 4 °C. […] Signals were quantified using programme Image J version 1.8.0. […]

[3] = Enzyme kinetics of GTP hydrolysis (PNP coupled assay, Michaelis–Menten); format: biochemical, Saccharomyces cerevisiae; details: isolated enzyme
[4] = parameters: method as in PMID 25991726, PMID 30780079, PMID 23831625; details: wild-type Efl1; cited from earlier work

B1: Efl1 wild type (Saccharomyces cerevisiae S288C) (protein)
chain: MPRVESETYKRLQNDPSCIRNICIVAHVDHGKTSLSDSLLASNGIISQRLAGKIRFLDARPDEQLRGITMESSAISLYFRVLRKQEGSDEPLVSEHLVNLIDSPGHIDFSSEVSAASRLCDGAVVLVDVVEGVCSQTVTVLRQCWTEKLKPILVLNKIDRLITELQLTPQEAYIHLSKVIEQVNSVIGSFFANERQLDDLFWREQLEKNENAEYIEKDDSGIYFNPTDNNVIFASAIDGWGFNIGQLAKFYEQKLGAKRENLQKVLWGDFYMDPKTKKIINNKGLKGRSLKPLFTSLILENIWKIYQNIITSRDSEMVEKIAKTLNIKLLARDLRSKDDKQLLRTIMGQWLPVSTAVLLTVIEKLPSPLESQTDRLNTILVSESDTAAMDPRLLKAMKTCDKEGPVSAYVSKMLSIPREELPVESKRIASSDELMERSRKAREEALNAAKHAGMVENMAMMDLNDNSKNTSDLYKRAKDTVMTPEVGEQTKPKPSRNNDVFCVVSEPSSALDLEFEYEGEDDSDSQDNFGLDFVPTDIDPNDPLSSMFEYEEEDPLLESIKQISEDVNDEVDDIFDEKEECLVAFARIYSGTLRVGQEISVLGPKYDPKCPEEHIETAIITHLYLFMGKELVPLDVCPSGNIVGIRGLAGKVLKSGTLIEKGVQGVNLAGVNFHFTPIVRVAVEPANPVEMSKLVRGLKLLDQADPCVHTYVENTGEHILCTAGELHLERCLKDLTERFAGIEITHSEPAIPYRETFLSASDMNPPQNSQLGRGVHELLLSQYKITFRTFPLSGKVTDFLSQHQNSIKNILKTSTSSMDPVIESTGSSFLDKKSLLVAFEEVINQEEKSRELLSGFKVKLAGFGPSRVGCNILLSQDNLLGSLFEGTPAAFEYSDSIKNGFQLAVSEGPLANEPVQGMCVLVESVHKMSQDEIESIEDPRYQQHIVDLSGRLITSTRDAIHEAFLDWSPRIMWAIYSCDIQTSVDVLGKVYAVILQRHGKIISEEMKEGTPFFQIEAHVPVVEAFGLSEDIRKRTSGAAQPQLVFSGFECIDLDPFWVPTTEEELEELGDTADRENIARKHMNAIRRRKGLFIEEKVVENAEKQRTLKKN
notes: recombinantly expressed in S. cerevisiae; isolated GTPase
In the case of B1, the Km [1] is reported as 155 µM, the “release of Tif6 from the 60S subunit (distribution of Tif6 in free and bound fraction, immunoblot)” value [2] is reported as “Tif6 was enriched in the free fraction” and the kcat [3] is reported as 0.0112 s⁻¹. For the same molecule, the “fold decrease of Km for GTP upon interaction with Sdo1” value [4] was 2–3 fold.
